Results published in paper PMC10992996, “Human CRB1 and CRB2 form homo- and heteromeric protein complexes in the retina” (Life Science Alliance, 2024).

Molecular target: T1, CRB1-FLAG p.C480R (human, UniProt P82279 26-1406, p.C480R)
T1 construct: Crumbs homolog 1, canonical form, human, cDNA NM_202153 as printed, with a patient missense mutation; Made by site-directed mutagenesis of m1; also called CRB1 p.C480R; CRB1-FLAG MT; source: HEK293T, transfected, in lysate; not shown: Strep-Strep-FLAG, N-terminal, kept
T1 sequence (looked up): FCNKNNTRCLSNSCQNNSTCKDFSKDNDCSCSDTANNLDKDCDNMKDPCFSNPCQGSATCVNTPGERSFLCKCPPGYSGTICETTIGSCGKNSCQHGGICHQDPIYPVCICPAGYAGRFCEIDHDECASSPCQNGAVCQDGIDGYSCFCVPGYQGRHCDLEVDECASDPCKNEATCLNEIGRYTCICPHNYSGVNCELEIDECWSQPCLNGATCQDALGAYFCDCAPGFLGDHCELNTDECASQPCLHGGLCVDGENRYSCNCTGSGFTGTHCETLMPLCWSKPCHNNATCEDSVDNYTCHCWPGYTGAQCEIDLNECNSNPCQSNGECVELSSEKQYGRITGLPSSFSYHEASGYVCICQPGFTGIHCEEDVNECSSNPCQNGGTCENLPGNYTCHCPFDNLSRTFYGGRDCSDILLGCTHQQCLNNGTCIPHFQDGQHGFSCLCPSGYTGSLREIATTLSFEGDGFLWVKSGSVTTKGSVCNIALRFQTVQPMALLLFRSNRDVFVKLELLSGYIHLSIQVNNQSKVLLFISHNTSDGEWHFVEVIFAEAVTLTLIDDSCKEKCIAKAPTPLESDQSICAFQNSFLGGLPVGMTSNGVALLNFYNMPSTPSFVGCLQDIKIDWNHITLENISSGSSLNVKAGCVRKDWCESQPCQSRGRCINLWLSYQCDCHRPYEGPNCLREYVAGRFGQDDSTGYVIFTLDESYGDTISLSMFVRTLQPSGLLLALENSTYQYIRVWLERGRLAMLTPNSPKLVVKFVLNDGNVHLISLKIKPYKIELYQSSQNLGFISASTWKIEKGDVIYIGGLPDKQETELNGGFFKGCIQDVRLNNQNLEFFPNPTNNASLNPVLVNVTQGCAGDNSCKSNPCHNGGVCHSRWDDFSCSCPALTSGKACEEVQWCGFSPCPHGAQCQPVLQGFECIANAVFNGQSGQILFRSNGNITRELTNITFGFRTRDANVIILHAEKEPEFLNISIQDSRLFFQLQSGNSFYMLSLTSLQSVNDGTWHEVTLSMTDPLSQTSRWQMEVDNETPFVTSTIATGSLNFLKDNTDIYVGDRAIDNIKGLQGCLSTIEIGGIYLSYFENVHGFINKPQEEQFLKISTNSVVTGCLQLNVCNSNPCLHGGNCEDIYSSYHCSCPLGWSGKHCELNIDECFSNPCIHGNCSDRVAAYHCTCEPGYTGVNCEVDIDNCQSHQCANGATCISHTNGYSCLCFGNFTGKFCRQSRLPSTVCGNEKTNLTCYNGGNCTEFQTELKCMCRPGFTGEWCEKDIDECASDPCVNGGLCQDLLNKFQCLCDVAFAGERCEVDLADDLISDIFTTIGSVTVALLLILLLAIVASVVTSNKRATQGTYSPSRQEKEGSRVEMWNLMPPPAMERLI
Assay: co-IP; HEK293T cells co-transfected pairwise with a FLAG and an HA construct, 48 h; lysis in TBS (30 mM Tris-HCl pH 7.4, 150 mM NaCl) with 0.5% Nonidet P40; FLAG-IP on ANTI-FLAG M2 Affinity Gel 60-90 min at 4°C, elution with FLAG peptide; Western blot with HA and FLAG antibodies; for mutants HA/FLAG signal in eluates relative to WT, three biological replicates
Conditions: partners not purified

percent of the interaction capacity relative to CRB1 WT: 96%
B1: Human canonical CRB2 (Crumbs homolog 2) (natural protein)
chain: not shown
notes: Crumbs homolog 2, human, cDNA NM_173689; Stood as bait (FLAG copy) and as prey (HA copy) in the pairwise co-IP matrix; each copy carries only one of the two tags; The FLAG copy was the bait of the mass spectrometry pull-downs; also called CRB2-FLAG; CRB2-HA; source: HEK293T, transfected, in lysate (co-IP); HEK293T, transfected, FLAG-IP on beads, washed and purified with 0.01% SDS (retina …)
